Test results taken from the RNAGym collection of RNA variant scans (doi:10.7554/elife.90254).

B1: LINE1-full (parent)
chain: UACGUAGGUGGUUUUCCCCUGAUAGUGCUAAGGGGGCCUGGAAGUUUGGACUGGGCAGAGCUCAACACAGCGUGGCAAAGUGGCUGUGGCUAGACUGCCUCUCUGGAUUCCUCGUCACUCAGCAGGGCAUCUCUGAGAGAAAUGCC

Variants of: B1
Experiment: self-cleavage, relative activity (ratio to wild type); higher = more cleavage; in vitro, sequencing; the parent is a self-cleaving ribozyme

Compared with UACGUAGGUGGUCUUCCCCUGAUAGUGCUAAGGGGGCCUGGAAGUUUGGACUGGGCAGAGCUCAACACAGCGUGGCAAAGUGGCUGUGGCUAGACUGCCUCUCUGGAUUCCUCGUCGCUCAGCAGGGCAUCUCUGAGAGAAAUGCC [U13C A117G], UACGUAGGUGGUUUUCCCCUGAUAGUGCUAAGGGGGCCUGGAAGUUUGGACUGGGCAGAGCUCAACACAGCGUGGCAAAGUGGCUGUGGCUAGACUGCCUCUCUGAAUUCCUCGUCACUCAGCAGGGCAUCUCCGAGAGAAAUGCC [G106A U134C] is higher in self-cleavage: 1.02 for the first, 1.08 for the second.

Compared with UACGUAGGUGGUUUUCCCCUGAUAGUGCUAAGGGGGCCUGGGAGUUUGGACUGGGCAGAGCUCAACACAGCGUGGCAAAGUGGCUGUGGCUAGACUGCCUCUCUGGAUUCCUCGUCACUCAGCAGGGCAUCUCUGAGAGUAAUGCC [A42G A140U], UACGUAGGUGGUUUUCCCCUGAUAGUGCUAAGGGGGCCUGGAAGUAUGGACUGGGCAGAGCUCAACACAGCGUGGCAAAGUGGCUGUGGCCAGACUGCCUCUCUGGAUUCCUCGUCACUCAGCAGGGCAUCUCUGAGAGAAAUGCC [U46A U91C] is lower in self-cleavage: 1.2 for the first, 0.63 for the second.

First: UACGAAGGUGGUUUUCCCCUGAUAGUGCUAAGGGGCCCUGGAAGUUUGGACUGGGCAGAGCUCAACACAGCGUGGCAAAGUGGCUGUGGCUAGACUGCCUCUCUGGAUUCCUCGUCACUCAGCAGGGCAUCUCUGAGAGAAAUGCC [U5A G36C]
Second: UACGUAGGUGGUUUUCCCCUGAUAGUGCUAAGGGGGCCUGGAAGUUUGGACUGGGCAGAGCUCAACACAGCGUGGCAAAGUGGCUGUGGCUAGACUGCCUCUCUGGAUUCCUCGUCACUCAGCAGGGUAUCUCUGAGGGAAAUGCC [C128U A138G]
The self-cleavage of the first is lower: 1.16 for the first, 1.44 for the second.

First: UACGUAGGUGGUUUUCCCCUGAUAGUGCUAAGGGGGCCUGGAAGUUUGGACUGGGCGGAGCUCAACACAGCGUGGCAAAGUGGCUGUGGCUAGACUGCUUCUCUGGAUUCCUCGUCACUCAGCAGGGCAUCUCUGAGAGAAAUGCC [A57G C99U]
Second: UACGUAGGUGGUUUUUCCCUGAUAGUGCUAAGGGGGCCUGGAAGUUUGGACUGGGCAGAGCUCAACACAGCGUGGCAAAGUGGCUGUGGCUAGACUGCCUCUCAGGAUUCCUCGUCACUCAGCAGGGCAUCUCUGAGAGAAAUGCC [C16U U104A]
The self-cleavage of the first is lower: 0.13 for the first, 1.12 for the second.

Going from UACGUAGGUGGUUUUCCCCUGAUAGUGCUAAGGGGGCCUGGAAGUUUGGACUGGGCAGAGCUCAACACAGCGGGGCAAAGGGGCUGUGGCUAGACUGCCUCUCUGGAUUCCUCGUCACUCAGCAGGGCAUCUCUGAGAGAAAUGCC [U73G U81G] to UACGUAGGUGGUUUUCCCCUGAUAGUGCUAAGGGGGCCUGGAAGUUUGGACUGGGCAGAGCUCAACACAGCGUGGCAAAGUGGCUGUGGCUAGACUGCCUCUCUGUACUCCUCGUCACUCAGCAGGGCAUCUCUGAGAGAAAUGCC [G106U U108C], the self-cleavage rises from 1.05 to 1.32.

Going from UACGUAGGUGGUUUUCCCCUGAUAGUGCUAAGGGGGCCUGGAAGUUUGGACUGGGCAGAGCUCAACACAGCGUGGCAAAGUGGCUGUGGCUAGACUGCCUCUCUGGAUUCCUCGUCACUCAGCAGGGCAUCUCUGAGGGUAAUGCC [A138G A140U] to UACGUAGGUGGAUUUCCCCUGAUAGUGCUAAGGGGGCCUGGAAGUUUGGACUGGGCAGAGCUCAACACAGCGUGGCGAAGUGGCUGUGGCUAGACUGCCUCUCUGGAUUCCUCGUCACUCAGCAGGGCAUCUCUGAGAGAAAUGCC [U12A A77G], the self-cleavage rises from 1.29 to 1.88.

Compared with UACGUAGGUGGUUUUCCACUGAUAGUGCUAAGGGGACCUGGAAGUUUGGACUGGGCAGAGCUCAACACAGCGUGGCAAAGUGGCUGUGGCUAGACUGCCUCUCUGGAUUCCUCGUCACUCAGCAGGGCAUCUCUGAGAGAAAUGCC [C18A G36A], UACGUAGGUGGUUUUCCCCUGAUAGUGCUAAGGGGGCCUGGAAGUUUGGACUAGGCAGAGCUCAACACAGCGUGGCAAAGUGGCUGUGGCUAGACUGCCUCUCUGGAUUCCUCGUCACUCAGCGGGGCAUCUCUGAGAGAAAUGCC [G53A A124G] is lower in self-cleavage: 1.12 for the first, 0.77 for the second.

Compared with UACGUAGGUGGUUUCCCCCUGAUAGUGCUAAGGGGGCCUGGAAGUUUGGACUGGGCAGAGCUCAACACAGCGUGGCAAAGUGGCUGUGGCUAGACUGCCUCUCUGGGUUCCUCGUCACUCAGCAGGGCAUCUCUGAGAGAAAUGCC [U15C A107G], UACGUAGGUGGUUUUCCCCUGAUAGCGCUAAGGGGGCCUGGAAGUUUGGACUGGGCAGAGCUCAACACAGCGUGGCAAAGUGGCUGUGGCUAGACUGCCUCUCUGGAUUCCUCGUCUCUCAGCAGGGCAUCUCUGAGAGAAAUGCC [U26C A117U] is higher in self-cleavage: 1.14 for the first, 2.25 for the second.

Going from UACGUAGGUGGUUUUCCCCUGAUAGUGCUAAGGGGGCCUGGAAGUUUGGACUGGGCAGAGCUCAACACAGCGUGGCAAAGUGGCUGUGGCUAGACUGCCUCUCUGGAUUCCCCGUCACUCAGCCGGGCAUCUCUGAGAGAAAUGCC [U112C A124C] to UGCGUAGGUGGUUUUCCCCUCAUAGUGCUAAGGGGGCCUGGAAGUUUGGACUGGGCAGAGCUCAACACAGCGUGGCAAAGUGGCUGUGGCUAGACUGCCUCUCUGGAUUCCUCGUCACUCAGCAGGGCAUCUCUGAGAGAAAUGCC [A2G G21C], the self-cleavage rises from 0.77 to 1.04.

Variant UACGUAGGUGGUUUUCCCCUGAUAGUGCUAAGGGGGCCUGGAAGUUUGGACUGGGCAGAGCUCAACACAGCGUGGCAAAAUGGCUGUGGCUAGACUGCCUCUCUGGAUUCCUCGUCACUCAGCAGGGCAUCUCUGAGAGUAAUGCC [G80A A140U] has a self-cleavage of 1.58.
